Test results: US20150216972A1 (SAMSUNG ELECTRONICS, published 2015)
Each block holds one binder with its values, some of them ahead of it.

How the values were obtained:
[1] = target: T1, human c-Met/Fc fusion protein (R&D Systems) (human, UniProt P08581 25-932); assay: ELISA, human c-Met/Fc coated at 2 ug/mL, hybridoma culture supernatant
T1 construct: Bought reagent; also called human c-Met/Fc protein; not shown: Fc part of the bought fusion
Description: Human c-Met/Fc fusion protein was seeded in an amount of 50 μL (2 μg/mL)/well to microtiter plates and allowed to adhere to the surface of each well. The antibody that remained unbound was removed by washing.
The hybridoma cell culture obtained in Reference Example 1.1.2 was added in an amount of 50 μL to each well of the plates and incubated for 1 hour. The cells remaining unreacted were washed out with a sufficient amount of Tris-buffered saline and Tween 20 (TBST). Goat anti-mouse IgG-horseradish peroxidase (HRP) was added to the plates and incubated for 1 hour at room temperature. The plates were washed with a sufficient amount of TBST, followed by reacting the peroxidase with a substrate (OPD). Absorbance at 450 nm was measured on an ELISA reader.

EGFR (R&D Systems) = target: T2, EGFR (R&D Systems) (UniProt P00533 25-645, limits assumed); assay: SPR, Biacore T100
T2 construct: also called epidermal growth factor receptor

T1 sequence (P08581 25-932 limits assumed): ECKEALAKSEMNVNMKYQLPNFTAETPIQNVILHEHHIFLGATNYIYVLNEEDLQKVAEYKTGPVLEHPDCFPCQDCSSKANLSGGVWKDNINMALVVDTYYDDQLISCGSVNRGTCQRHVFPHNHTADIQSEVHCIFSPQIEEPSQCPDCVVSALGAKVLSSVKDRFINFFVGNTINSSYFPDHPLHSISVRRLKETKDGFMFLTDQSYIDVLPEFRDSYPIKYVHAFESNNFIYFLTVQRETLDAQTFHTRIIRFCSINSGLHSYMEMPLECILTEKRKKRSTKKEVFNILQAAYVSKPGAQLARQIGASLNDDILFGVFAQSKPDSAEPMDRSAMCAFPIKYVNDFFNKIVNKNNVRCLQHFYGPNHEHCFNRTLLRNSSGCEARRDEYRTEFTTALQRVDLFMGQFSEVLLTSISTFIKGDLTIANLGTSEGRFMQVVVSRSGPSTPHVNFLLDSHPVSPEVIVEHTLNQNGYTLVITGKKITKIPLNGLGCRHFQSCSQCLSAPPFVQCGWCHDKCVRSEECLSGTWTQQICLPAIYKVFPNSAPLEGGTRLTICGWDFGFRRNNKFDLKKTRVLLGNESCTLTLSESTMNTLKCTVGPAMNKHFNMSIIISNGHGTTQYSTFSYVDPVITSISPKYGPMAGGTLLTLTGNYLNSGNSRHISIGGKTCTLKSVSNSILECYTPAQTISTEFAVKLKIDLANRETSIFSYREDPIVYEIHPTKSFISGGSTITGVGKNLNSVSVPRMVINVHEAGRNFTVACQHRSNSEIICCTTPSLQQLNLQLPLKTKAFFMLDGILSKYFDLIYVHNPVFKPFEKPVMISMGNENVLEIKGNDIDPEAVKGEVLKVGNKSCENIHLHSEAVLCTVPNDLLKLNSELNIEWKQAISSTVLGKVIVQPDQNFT

binding result [1]: binds
B1: AbF46, mouse monoclonal antibody to c-Met (antibody, V domains shown)
VH: EVKLVESGGGLVQPGGSLRLSCATSGFTFTDYYMSWVRQPPGKALEWLGFIRNKANGYTTEYSASVKGRFTISRDNSQSILYLQMDTLRAEDSATYYCARDNWFAYWGQGTLVTVSA
VL: DILMTQSPSSLTVSAGEKVTMSCKSSQSLLASGNQNNYLAWHQQKPGRSPKMLIIWASTRVSGVPDRFIGSGSGTDFTLTINSVQAEDLAVYYCQQSYSAPLTFGAGTKLELK
notes: Screened as hybridoma culture supernatant; also called monoclonal antibody of hybridoma KCLRF-BP-00220

Kd (EGFR (R&D Systems)): ~350 pM
B2: ME-19, bispecific anti-c-Met/anti-EGFR antibody (anti-c-Met antibody L3-1Y / anti-EGFR DARPin conjugate) (bispecific antibody, human IgG2, kappa)
heavy: EVQLVESGGGLVQPGGSLRLSCAASGFTFTDYYMSWVRQAPGKGLEWLGFIRNKANGYTTEYSASVKGRFTISRDNSKNTLYLQMNSLRAEDTAVYYCARDNWFAYWGQGTLVTVSSASTKGPSVFPLAPCSRSTSESTAALGCLVKDYFPEPVTVSWNSGALTSGVHTFPAVLQSSGLYSLSSVVTVPSSNFGTQTYTCNVDHKPSNTKVDKTVERKCCVECPPCPAPPVAGPSVFLFPPKPKDTLMISRTPEVTCVVVDVSHEDPEVQFNWYVDGVEVHNAKTKPREEQFNSTFRVVSVLTVVHQDWLNGKEYKCKVSNKGLPAPIEKTISKTKGQPREPQVYTLPPSREEMTKNQVSLTCLVKGFYPSDIAVEWESNGQPENNYKTTPPMLDSDGSFFLYSKLTVDKSRWQQGNVFSCSVMHEALHNHYTQKSLSLSPGKGGGGSGGGGSDLGKKLLEAARAGQDDEVRILMANGADVNADDTWGWTPLHLAAYQGHLEIVEVLLKNGADVNAYDYIGWTPLHLAADGHLEIVEVLLKNGADVNASDYIGDTPLHLAAHNGHLEIVEVLLKHGADVNAQDKFGKTAFDISIDNGNEDLAEILQ
light: DIQMTQSPSSLSASVGDRVTITCKSSQSLLASGNQNNYLAWYQQKPGKAPKMLIIWASTRVSGVPSRFSGSGSGTDFTLTISSLQPEDFATYYCQQSYSRPYTFGQGTKVEIKRTVAAPSVFIFPPSDEQLKSGTASVVCLLNNFYPREAKVQWKVDNALQSGNSQESVTEQDSKDSTYSLSSTLTLSKADYEKHKVYACEVTHQGLSSPVTKSFNRGEC
notes: also called c-Met/EGFR bsAb
